The assay deals with T1, HER2 on SK-BR-3 human breast cancer cells (human, UniProt P04626 23-1255).
T1 construct: whole, on cells; also called SK-BR-3 cells; whole cell (SK-BR-3)
Put plainly: flow cytometry on SK-BR-3 cells, human IgG1, anti-human IgG-FITC detection. As for the experimental part: Following washes in PBS containing 1% BSA, secondary antibody anti-human IgG-FITC (Sigma) was added for 30 min on ice. Fluorescence intensity of the live cell population was recorded using FACSCalibur (BD Biosciences) and analyzed using FlowJo 7.6.5 software (Tree Star).
In general terms: In flow cytometry, cells or beads pass a laser one at a time.

B1: 4D5 as human IgG1, VH 30D (30D/WT) (antibody, V domains shown)
VH: QVQLVESGGGLVQPGGSLRLSCAASGFNIDDTYIHWVRQAPGKGLEWVARIYPTNGYTRYADSVKGRFTISADTSKNTAYLQMNSLRAEDTAVYYCSRWGGDGFYAMDVWGQGTLVTVSS
VL: not shown
For the molecule B1, the concentration giving a half-maximal response (EC50) (as a rule, the midpoint of the concentration-response curve) turned out to be 0.827 µg/mL.

B2: 4D5 as human IgG1, VH 30D and VL 52D (30D/52D) (antibody, V domains shown)
VH: QVQLVESGGGLVQPGGSLRLSCAASGFNIDDTYIHWVRQAPGKGLEWVARIYPTNGYTRYADSVKGRFTISADTSKNTAYLQMNSLRAEDTAVYYCSRWGGDGFYAMDVWGQGTLVTVSS
VL: QIQMTQSPSSLSASVGDRVTITCRASQDVNTAVAWYQQKPGKAPKLLIYSADFLESGVPSRFSGSRSGTDFTLTISSLQPEDFATYYCQQHYTTPPTFGQGTKVEIK
Molecule B2 came in with a concentration giving a half-maximal response (EC50) of 0.978 µg/mL.

The values are drawn from US20170240619A1 (GARVAN INSTITUTE OF MEDICAL RESEARCH, published 2017).
